Source: the supplement of paper PMC11246515
± gives the standard deviation of the averaged measurements.

Assay: total protein half-life in vivo (active degradation + dilution); higher = more stable protein
[1] = E. coli NCM3722 delta-clpP, growth: N-lim chemostat, doubling time 6 h
[2] = E. coli NCM3722 delta-hslV, growth: N-lim chemostat, doubling time 6 h
[3] = E. coli NCM3722 delta-lon, growth: N-lim chemostat, doubling time 6 h
[4] = E. coli NCM3722 delta-smpB, growth: N-lim chemostat, doubling time 6 h
[5] = wild type E. coli NCM3722, growth: C-lim chemostat, doubling time 3 h
[6] = wild type E. coli NCM3722, growth: C-lim chemostat, doubling time 6 h
[7] = wild type E. coli NCM3722, growth: C-lim chemostat, doubling time 12 h
[8] = wild type E. coli NCM3722, growth: N-lim chemostat, doubling time 6 h
[9] = wild type E. coli NCM3722, growth: N-lim chemostat, doubling time 12 h
[10] = wild type E. coli NCM3722, growth: P-lim chemostat, doubling time 6 h
[11] = wild type E. coli NCM3722, growth: P-lim chemostat, doubling time 12 h
[12] = E. coli NCM3722 delta-clpP delta-lon delta-hslV, growth: N-lim chemostat, doubling time 6 h

Sequence	total protein half-life in vivo [1]	total protein half-life in vivo [2]	total protein half-life in vivo [3]	total protein half-life in vivo [4]	total protein half-life in vivo [5]	total protein half-life in vivo [6]	total protein half-life in vivo [7]	total protein half-life in vivo [8]	total protein half-life in vivo [9]	total protein half-life in vivo [10]	total protein half-life in vivo [11]	total protein half-life in vivo [12]
MAKEFGRPQRVAQEMQKEIALILQREIKDPRLGMMTTVSGVEMSRDLAYAKVYVTFLNDKDEDAVKAGIKALQEASGFIRSLLGKAMRLRIVPELTFFYDNSLVEGMRMSNLVTSVVKHDEERRVNPDDSKED [P0A7G2]	4.7644 ± 0.0036 h	4.43 ± 0.063 h	5.76 ± 0.31 h	4.56 ± 0.23 h	2.87 ± 0.079 h	5.38 ± 0.84 h	10.3 ± 0.93 h	4.6 ± 0.22 h	7.76 ± 0.5 h	4.66 ± 0.12 h	8.771 ± 0.013 h	
MTINDSAISEQGMCEEEQVARIAWFYYHDGLTQSEISDRLGLTRLKVSRLLEKGHQSGIIRVQINSRFEGCLEYETQLRRQFSLQHVRVIPGLADADVGGRLGIGAAHMLMSLLQPQQMLAIGFGEATMNTLQRLSGFISSQQIRLVTLSGGVGSYMTGIGQLNAACSVNIIPAPLRASSADIARTLKNENCVKDVLLAAQAADVAIVGIGAVSQQDDATIIRSGYISQGEQLMIGRKGAVGDILGYFFDAKGDVVTNIKIHNELIGLPLSALKTIPVRVGVAGGENKAEAIAAAMKGGYINALVTDQDTAAAILRS	5.69 ± 0.67 h	4.76 ± 0.47 h	4.58 ± 0.45 h	4.6 ± 0.058 h	2.88 ± 0.2 h	4.551 ± 0.016 h	7.78 h	4.64 ± 0.19 h	8.2 ± 0.58 h	5.08 h		5.64 ± 1.1 h
MKLRSVTYALFIAGLAAFSTSSLAAQSLRFGYETSQTDSQHIAAKKFNDLLQERTKGELKLKLFPDSTLGNAQAMISGVRGGTIDMEMSGSNNFAGLSPVMNLLDVPFLFRDTAHAHKTLDGKVGDDLKASLEGKGLKVLAYWENGWRDVTNSRAPVKTPADLKGLKIRTNNSPMNIAAFKVFGANPIPMPFAEVYTGLETRTIDAQEHPINVVWSAKFFEVQKFLSLTHHAYSPLLVVINKAKFDGLSPEFQQALVSSAQEAGNYQRKLVAEDQQKIIDGMKEAGVEVITDLDRKAFSDALGNQVRDMFVKDVPQGADLLKAVDEVQ					3.23 ± 0.18 h	6.69 ± 0.32 h	9.23 ± 0.3 h					4.65 h
MGKTISIKVLFGIYLLLMAGKVFAFSCNVDGGSSIGAGTTSVYVNLDPVIQPGQNLVVDLSQHISCWNDYGGWYDTDHINLVQGSAFAGSLQSYKGSLYWNNVTYPFPLTTNTNVLDIGDKTPMPLPLKLYITPVGAAGGVVIKAGEVIARIHMYKIATLGSGNPRNFTWNIISNNNVVMPTGGCTVDSRNVTVDLPDFPGSAEIPLGVYCSSEQKLSFYLSGATTDSSRQVFANTAPDATKASGVGVTLMRNGKILATGENVSLGTVNKSKVPLGLSATYGQTGNKVSAGTVQSVIGVTFIYE	5.18 ± 0.35 h			5.306 ± 0.0055 h	2.85 ± 0.12 h	3.09 h	8.385 ± 0.065 h	6.56 h	12.7 ± 0.21 h			
MAVAMDNAILENILRQVRPLIGQGKVADYIPALATVDGSRLGIAICTVDGQLFQAGDAQERFSIQSISKVLSLVVAMRHYSEEEIWQRVGKDPSGSPFNSLVQLEMEQGIPRNPFINAGALVVCDMLQGRLSAPRQRMLEVVRGLSGVSDISYDTVVARSEFEHSARNAAIAWLMKSFGNFHHDVTTVLQNYFHYCALKMSCVELARTFVFLANQGKAIHIDEPVVTPMQARQINALMATSGMYQNAGEFAWRVGLPAKSGVGGGIVAIVPHEMAIAVWSPELDDAGNSLAGIAVLEQLTKQLGRSVY [P0A6W0]	6.48 ± 0.19 h	6.52 ± 0.92 h		6.07 ± 0.46 h	3.12 ± 0.28 h		12.8 ± 0.64 h	5.88 ± 1.1 h	12.2 ± 1.5 h	5.82 ± 0.85 h	13.1 ± 0.95 h	5.51 ± 0.69 h
MKKPNHSGSGQIRIIGGQWRGRKLPVPDSPGLRPTTDRVRETLFNWLAPVIVDAQCLDCFAGSGALGLEALSRYAAGATLIEMDRAVSQQLIKNLATLKAGNARVVNSNAMSFLAQKGTPHNIVFVDPPFRRGLLEETINLLEDNGWLADEALIYVESEVENGLPTVPANWSLHREKVAGQVAYRLYQREAQGESDAD [P0ADX9]	4.8 ± 0.15 h	4.49 ± 0.13 h	5.32 ± 0.09 h	5.18 ± 0.6 h	3.08 ± 0.15 h	5.57 ± 0.19 h	10.1 ± 1.5 h	4.49 ± 0.68 h	12.5 h	5.1 ± 0.26 h	11.1 ± 0.63 h	5.34 ± 0.45 h
MQNAGSLVVLGSINADHILNLQSFPTPGETVTGNHYQVAFGGKGANQAVAAGRSGANIAFIACTGDDSIGESVRQQLATDNIDITPVSVIKGESTGVALIFVNGEGENVIGIHAGANAALSPALVEAQRERIANASALLMQLESPLESVMAAAKIAHQNKTIVALNPAPARELPDELLALVDIITPNETEAEKLTGIRVENDEDAAKAAQVLHEKGIRTVLITLGSRGVWASVNGEGQRVPGFRVQAVDTIAAGDTFNGALITALLEEKPLPEAIRFAHAAAAIAVTRKGAQPSVPWREEIDAFLDRQR [P0A9J6]	6.07 ± 2.1 h	4.44 ± 0.042 h	4.91 ± 0.38 h	4.54 ± 0.2 h	3.14 ± 0.1 h	5.66 ± 0.076 h	11.8 ± 0.53 h	4.74 ± 0.36 h	7.76 ± 0.41 h	5.878 ± 0.056 h	11.9 ± 0.91 h	
